Source: patent publication US20160068860A1, “TRANSGENIC PLANTS” (CONSEJO SUPERIOR DE INVESTIGACIONES CIENTIFICAS (CSIC), priority 2013, published 2016)

Test system: HAB1
Assay: BiFC assay with HAB1 in N. benthamiana leaves
Assay type: cell-based
Conditions: no exogenous ABA
Protocol: Experiments were performed basically as described by Voinnet et al., (2003). The different binary vectors described above where introduced into Agrobacterium tumefaciens C58C1 (pGV2260) (Deblaere et al., 1985) by electroporation and transformed cells were selected in LB plates supplemented with kanamycin (50 μg/ml). Then, they were grown in liquid LB medium to late exponential phase and cells were harvested by centrifugation and resuspended in 10 mM morpholinoethanesulphonic (MES) acid-KOH pH 5.6 containing 10 mM MgCl2 and […] acetosyringone to an OD600 nm of 1. These cells were mixed with an equal volume of Agrobacterium C58C1 (pCH32 35S:p19) expressing the silencing suppressor p19 of tomato bushy stunt virus (Voinnet et al., 2003) so that the final density of Agrobacterium solution was about 1. Bacteria were incubated for 3 h at room temperature and then injected into young fully expanded leaves of 4-week-old N. benthamiana plants. Leaves were examined after 3-4 days under a Leica TCS-SL confocal microscope and laser scanning confocal imaging system. Quantification of fluorescent protein signal was done as described (Gampala et al., 2007) using the National Institutes of Health (NIH) Image software ImageJ v1.37. […]

B1: PYL4A194T: AtPYL4 ABA receptor mutant polypeptide with A194T substitution (SEQ ID NO. 60; nucleic acid SEQ ID NO: 55); also over-expressed in plants (protein, listed as Arabidopsis thaliana)
chain: MLAVHRPSSAVSDGDSVQIPMMIASFQKRFPSLSRDSTAARFHTHEVGPNQCCSAVIQEISAPISTVWSVVRRFDNPQAYKHFLKSCSVIGGDGDNVGSLRQVHVVSGLPAASSTERLDILDDERHVISFSVVGGDHRLSNYRSVTTLHPSPISGTVVVESYVVDVPPGNTKEETCDFVDVIVRCNLQSLAKITENTAAESKKKMSL
interaction with HAB1 (BiFC), PYL4 versus PYL4A194T: did not differ significantly
